From publication PMC3485694 (Structure (London, England : 1993), 2012)

Target: the molecule itself
Test: crystal structure

B1: human HisRS Δ1–53_507–509 (domain or fragment, UniProt P12081 54-506, looked up)
chain: FVLKTPKGTRDYSPRQMAVREKVFDVIIRCFKRHGAEVIDTPVFELKETLMGKYGEDSKLIYDLKDQGGELLSLRYDLTVPFARYLAMNKLTNIKRYHIAKVYRRDNPAMTRGRYREFYQCDFDIAGNFDPMIPDAECLKIMCEILSSLQIGDFLVKVNDRRILDGMFAICGVSDSKFRTICSSVDKLDKVSWEEVKNEMVGEKGLAPEVADRIGDYVQQHGGVSLVEQLLQDPKLSQNKQALEGLGDLKLLFEYLTLFGIDDKISFDLSLARGLDYYTGVIYEAVLLQTPAQAGEEPLGVGSVAAGGRYDGLVGMFDPKGRKVPCVGLSIGVERIFSIVEQRLEALEEKIRTTETQVLVASAQKKLLEERLKLVSELWDAGIKAELLYKKNPKLLNQLQYCEEAGIPLVAIIGEQELKDGVIKLRSVTSREEVDVRREDLVEEIKRRTGQPL
  stoichiometry N: 2

B2: human HisRS Δ507–509 (domain or fragment, UniProt P12081 1-506, looked up)
chain: MAERAALEELVKLQGERVRGLKQQKASAELIEEEVAKLLKLKAQLGPDESKQKFVLKTPKGTRDYSPRQMAVREKVFDVIIRCFKRHGAEVIDTPVFELKETLMGKYGEDSKLIYDLKDQGGELLSLRYDLTVPFARYLAMNKLTNIKRYHIAKVYRRDNPAMTRGRYREFYQCDFDIAGNFDPMIPDAECLKIMCEILSSLQIGDFLVKVNDRRILDGMFAICGVSDSKFRTICSSVDKLDKVSWEEVKNEMVGEKGLAPEVADRIGDYVQQHGGVSLVEQLLQDPKLSQNKQALEGLGDLKLLFEYLTLFGIDDKISFDLSLARGLDYYTGVIYEAVLLQTPAQAGEEPLGVGSVAAGGRYDGLVGMFDPKGRKVPCVGLSIGVERIFSIVEQRLEALEEKIRTTETQVLVASAQKKLLEERLKLVSELWDAGIKAELLYKKNPKLLNQLQYCEEAGIPLVAIIGEQELKDGVIKLRSVTSREEVDVRREDLVEEIKRRTGQPL
  binding result: binds
